In the assay the target is GST-N–ezrin (GST-tagged N-terminal ezrin 1–309 aa) (UniProt P15311). Briefly: pull-down.
Sequence of UniProt P15311 (P15311 1-309): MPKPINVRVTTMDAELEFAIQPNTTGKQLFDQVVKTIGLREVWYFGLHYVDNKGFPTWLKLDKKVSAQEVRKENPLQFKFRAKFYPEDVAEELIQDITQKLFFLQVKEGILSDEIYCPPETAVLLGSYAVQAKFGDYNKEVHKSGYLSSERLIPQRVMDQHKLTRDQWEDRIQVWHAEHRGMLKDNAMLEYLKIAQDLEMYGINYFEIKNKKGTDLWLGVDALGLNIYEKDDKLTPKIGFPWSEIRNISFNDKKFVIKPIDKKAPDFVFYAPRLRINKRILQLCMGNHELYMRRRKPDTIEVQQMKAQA

The substance “His6–thioredoxin fused NHERF2–C109 (domain or fragment)” gave a fold higher ezrin-binding affinity than NHERF1–C127 of 4 to 8 fold.
